For this data set, the system named is MS2 coat protein. Put plainly: apparent KD of MS2 coat protein; designed switch direction (-1 OFF switch, 1 ON switch): 1; higher = weaker reporter binding. The essentials: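 Designed RNA switches sharing common flanks were transcribed on Illumina chips by stalled E. coli RNA polymerase. They were titrated with SNAP-549-labelled MS2 coat protein, from 0.7 or 1.5 nM doubling to 3 µM, in Tris-HCl pH 7.5 buffer with KCl, MgCl2, BSA, DTT, tRNA and Tween-20. Titrations ran without input, with 200 uM small-molecule ligand, or with an oligonucleotide input. The apparent KD of each design is the median over its clusters, after curve-fitting of normalised cluster fluorescence.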

[1] abbreviates: Eterna round: R95, input ligand: FMN 200 uM.
Where [2] appears, read: Eterna round: R95, input ligand: microRNA oligo, concentration not stated.
The mark [3] stands for this setting: Eterna round: R95, input ligand: none.
[4] abbreviates: input ligand: microRNA oligo, concentration not stated.

For “GGUCCAGCCUGAGCUGGACAAAAGCAUGUACAUGAGGAUCACCCAUGUCAUGUACAAGCUUUUUGCUCGUCUAAAAG [Mat - hsa-mir-208a - 95] (puzzle: Sensor for hsa-mir-208a)”, the “apparent KD of MS2 coat protein” value under setting [1] amounted to 234 nM, the “apparent KD of MS2 coat protein” value under setting [2] is 19 nM and the “apparent KD of MS2 coat protein” value under setting [3] is 467 nM.

On to “GGUCCAGCCUGAGCUGGACAAAAGCAUGUACAUGAGGAUCACCCAUGUCAUGUACAAGCUUUUUGCUCGUCUUAAGA [Mat - hsa-mir-208a - 88] (Eterna round: R96, puzzle: Sensor for hsa-mir-208a)”, for which the “apparent KD of MS2 coat protein” value runs as follows: (input ligand: FMN 200 uM) 752 nM; under setting [4], 15.4 nM; (input ligand: none) 712 nM.

On to “GGUCCAGCCUGAGCUGGACAAAAGCAUGUACAUGAGGAUCACCCAUGUCAUGUACAAGCUUUUUGCUCGUCUUAAGA [Mat - hsa-mir-208a - 88] (puzzle: Sensor for hsa-mir-208a)”, for which the “apparent KD of MS2 coat protein” value stood at 1060 nM under setting [1], 17.7 nM under setting [2] and 1020 nM under setting [3].

For “GGUCCAGCCUGAGCUGGACAAAAGCGUGUACAUGAGGAUCACCCAUGUCAUGUACAAGCUUUUUGCUCGUCUUAAAA [JL mod - D87 - 6] (puzzle: Sensor for hsa-mir-208a)”, the “apparent KD of MS2 coat protein” value is, setting by setting: under setting [1], 80.2 nM; under setting [2], 18.8 nM; under setting [3], 94.9 nM.

For the sequence “GGUCCAGCCUGAGCUGGACCACAGCAUGUACAUGAGGAUCACCCAUGUCAUGUACAUGCUUUUUGUUUGUCUUAAAA [Sensorship 11 - Jieux - Sensor for hsa-mir-208a] (puzzle: Sensor for hsa-mir-208a)”, the “apparent KD of MS2 coat protein” value is, setting by setting: under setting [1], 72.2 nM; under setting [2], 32.7 nM; under setting [3], 47.3 nM.

On to “GGUCCAGCCUGAGCUGGACGAAAGUAUGUACAUGAGGAUCACCCAUGUCAUGUAUAAGUUUUUUGUUCGUCUUGAAA [Sensorship 1 - Jieux - Sensor for hsa-mir-208a] (puzzle: Sensor for hsa-mir-208a)”, for which the “apparent KD of MS2 coat protein” value is, setting by setting: under setting [1], 26 nM; under setting [2], 14.2 nM; under setting [3], 23.1 nM.

In the case of “GGUCCAGCUUUUGCUGGUCCUUCGCUUGCACAUGAGGAUCACCCAUGUCGUGUACAUGCUUCCUGCCCGUCUUUUUU [Photon Torp-17] (puzzle: Sensor for hsa-mir-208a)”, the “apparent KD of MS2 coat protein” value runs as follows: under setting [1], 34.4 nM; under setting [2], 15.5 nM; under setting [3], 39.1 nM.

As for “GGUCGGACUCACAUGAGGAUCACCCAUGUUGCGGAAACGCCAUAGGAUAUCUGUCCGAAAAGGUCAGAGAAGGGUGAACCGACC [Fiskers NG3ss - 65] (Eterna round: R96, puzzle: Same State NG 3)”, the “apparent KD of MS2 coat protein” value turned out to be 515 nM (input ligand: FMN 200 uM), 391 nM under setting [4] and 572 nM (input ligand: none).

Regarding “GGUCGGACUCACAUGAGGAUCACCCAUGUUGGCGAAAGCCGACAGGAUAUCUGUCCGAAAAGGUCAGAGAAGGGUUAACCGACC [Fiskers NG3ss - 61] (Eterna round: R96, puzzle: Same State NG 3)”, the “apparent KD of MS2 coat protein” value runs as follows: (input ligand: FMN 200 uM) 397 nM; under setting [4], 326 nM; (input ligand: none) 159 nM.

For the sequence “GGUCGGUCCAAACAUGAGGAUCACCCAUGUCCGGAAACGGCAUAGGAUAUCUGUCCGAAAAGGUCAGAGAAGGGUGAACCGACC [Fiskers NG3ss - 71] (Eterna round: R96, puzzle: Same State NG 3)”, the “apparent KD of MS2 coat protein” value (input ligand: FMN 200 uM) came out at 795 nM, the “apparent KD of MS2 coat protein” value under setting [4] came to 741 nM and the “apparent KD of MS2 coat protein” value (input ligand: none) turned out to be 149 nM.

With “GGUCUAGUUACAGGAUAUGCUAUCCUUUGGGUAGCAGAAGGGUGGUAACAUGAGGAUCACCCAUGUGGGCCAGGGCGUGAGCCC [JL SSNG1 1.00] (Eterna round: R96, puzzle: Same State NG 1)”, the “apparent KD of MS2 coat protein” value amounted to 770 nM (input ligand: FMN 200 uM), 981 nM under setting [4] and 1260 nM (input ligand: none).

Take “GGUGCCAAAUAAGCCUACAUGAGGAUCACCCAUGUAUGUAGGCAGGAUAUCGUAUGCAAAGCAUACGAGAAGGGCUGAGGCACC [Mat - Same State NG 3 - JL Mod - D54] (Eterna round: R96, puzzle: Same State NG 3)”: the “apparent KD of MS2 coat protein” value runs as follows: (input ligand: FMN 200 uM) 25.7 nM; under setting [4], 51.6 nM; (input ligand: none) 80.5 nM.

Take “GGUGCGAAAUAAGCCUACAUGAGGAUCACCCAUGUAUGUAGGCAGGAUAUCGUAUGCAAAGCAUACGAGAAGGGCUGACGCACC [Mat - Same State NG 3 - JL Mod - D51] (Eterna round: R96, puzzle: Same State NG 3)”: the “apparent KD of MS2 coat protein” value (input ligand: FMN 200 uM) amounted to 32.5 nM, the “apparent KD of MS2 coat protein” value under setting [4] stood at 55.9 nM and the “apparent KD of MS2 coat protein” value (input ligand: none) came out at 75.4 nM.

“GGUGGGUUACUACCCACACAUGAGGAUCACCCAUGUAUUGGGAAGGAUAUGGUGCCUGUGUGGUACCAGAAGGUCCUGAAGGUG [SS-NG3-LRO18] (Eterna round: R96, puzzle: Same State NG 3)”: the “apparent KD of MS2 coat protein” value is, setting by setting: (input ligand: FMN 200 uM) 1360 nM; under setting [4], 1030 nM; (input ligand: none) 2130 nM.

Consider “GGUGUACAUGAGGAUCACCCAUGUCGUACGACAUGAGGAUAUGUACAGACUUCGGUCUGUACAGAAGGCAUGUGUC [SS1 - 1011 Omei Mod 5] (puzzle: Same State 1)”, for which the “apparent KD of MS2 coat protein” value under setting [2] is 210 nM.

In the case of “GGUUUAGCCAGGUGCAGUUGCACCUGAAAACAUGAGGAUCACCCAUGUUUGGGACAAGCUUUGCUCCUCGUCUUUCC [Isusreraar] (puzzle: Sensor for hsa-mir-208a)”, the “apparent KD of MS2 coat protein” value came out at 267 nM under setting [1], 38.7 nM under setting [2] and 364 nM under setting [3].

On to “GGUUUAGUCAAGUGCCGUUGCACUUGAAAACAUGAGGAUCACCCAUGUUCGGGACAAGCUUUGCUCCUCGUCUUUCC [Geisedor] (puzzle: Sensor for hsa-mir-208a)”, for which the “apparent KD of MS2 coat protein” value under setting [1] is 255 nM, the “apparent KD of MS2 coat protein” value under setting [2] was determined as 50.2 nM and the “apparent KD of MS2 coat protein” value under setting [3] was 389 nM.

With “GUAAAACAUGAGGAUCACCCAUGUAAUAUAAUGGGAGGAUAUCUGAUUUAAUUAAAUUUAAGAGAAGGCCUAAAUG [Mat - Same State 1 - Mod of Eli - D56] (puzzle: Same State 1)”, the “apparent KD of MS2 coat protein” value reads like this: under setting [1], 32.1 nM; under setting [2], 107 nM; under setting [3], 123 nM.

“GUAAAACAUGAGGAUCACCCAUGUCAACAAAGUCGAGGAUAUGGGCAUAUAUUAUAUGAACCAGAAGGCGAAUAUG [Mat - Same State 1 - Mod of UCT - D27] (puzzle: Same State 1)”: the “apparent KD of MS2 coat protein” value reads like this: under setting [1], 14.6 nM; under setting [2], 43.1 nM; under setting [3], 33.9 nM.

As to “GUAAAACAUGAGGAUCACCCAUGUCAUCUAAGUCGAGGAUAUGGGAAUUAAUUAAUUAAUCCAGAAGGCGAAAAUG [Mat - Same State 1 - D94] (puzzle: Same State 1)”, the “apparent KD of MS2 coat protein” value runs as follows: under setting [1], 41.1 nM; under setting [2], 58.1 nM; under setting [3], 110 nM.

With “GUAAGUUUGAUGCUCGUCUCUCCGUACAGACAUGAGGAUCACCCAUGUAGUCGGGAAGUAGCCCGGCCAGUAUGGCC [Zaorve] (puzzle: Sensor for hsa-mir-208a)”, the “apparent KD of MS2 coat protein” value under setting [1] was determined as 18.1 nM, the “apparent KD of MS2 coat protein” value under setting [2] was 22.2 nM and the “apparent KD of MS2 coat protein” value under setting [3] is 17.7 nM.

As for “GUAAUAAAGGAAGGAUAUGGGUAAACGGGAAUCCCAGAAGGUCCACAUGAGGAUCACCCAUGUGGUCCCGAAACCAAGGGACCG [Cetibiza] (Eterna round: R96, puzzle: Same State NG 1)”, the “apparent KD of MS2 coat protein” value runs as follows: (input ligand: FMN 200 uM) 53.1 nM; under setting [4], 19.3 nM; (input ligand: none) 48.7 nM.

In the case of “GUACAAAUCAUAGGAUAUGGGCGGGAAUGCCGUCCAGAAGGAUGAACAUGAGGAUCACCCAUGUCCGGCCGCAAAUACGCGGCC [Xexeti] (Eterna round: R96, puzzle: Same State NG 1)”, the “apparent KD of MS2 coat protein” value (input ligand: FMN 200 uM) turned out to be 62.6 nM, the “apparent KD of MS2 coat protein” value under setting [4] turned out to be 140 nM and the “apparent KD of MS2 coat protein” value (input ligand: none) was 209 nM.

As to “GUACAGAUUAUAGGAUAUCACGUCGUUUAGACGUGAGAAGGAUAAUCCCACAUGAAUAUUAAUACAUGAGGAUCACCCAUGUAC [SSNG1/18-B3] (Eterna round: R96, puzzle: Same State NG 1)”, the “apparent KD of MS2 coat protein” value is, setting by setting: (input ligand: FMN 200 uM) 21.8 nM; under setting [4], 27.7 nM; (input ligand: none) 30.7 nM.

In the case of “GUACAUAUUAUAGGAUAUCACGUCGAUUAGACGUGAGAAGGAUAAUCCCACAUGAAUAUUAAUACAUGAGGAUCACCCAUGUAC [SSNG1/18-A2] (Eterna round: R96, puzzle: Same State NG 1)”, the “apparent KD of MS2 coat protein” value reads like this: (input ligand: FMN 200 uM) 83.3 nM; under setting [4], 66.3 nM; (input ligand: none) 51 nM.

Consider “GUACUACAUGAGGAUCACCCAUGUACAAAAGUACGAGGAUAUGCAUGGACGAAAGUUGGUGCAGAAGGCGUAGUAC [Pin2Pin #3] (puzzle: Same State 1)”, for which the “apparent KD of MS2 coat protein” value by setting is: under setting [1], 20.2 nM; under setting [2], 25.9 nM; under setting [3], 24 nM.

With “GUAGAUGUAGAGGAGGAUAUUCAAUGAGGAACAUGAGGAUCACCCAUGUAAGAGAGAGAUGAUAGGAAGAAGGCUUAGAGAGAUG [Altered State 2-5 - Jieux - Same State 2] (puzzle: Same State 2)”, the “apparent KD of MS2 coat protein” value reads like this: under setting [1], 24.2 nM; under setting [2], 31.7 nM; under setting [3], 43.1 nM.

Source of the values: the supplement of paper PMC9170038.
